According to PMC12637021, “Talin–tensin3 interactions regulate fibrillar adhesion formation and tensin3 phase separation” (The Journal of Cell Biology, 2025):

What was measured:
NIH3T3 cells [1] = experiment: FRAP of GFP-TNS3 in adhesions; format: cell-based, mouse; settings: vs TNS3-WT; 37°C; n = 27 (WT) and 26 (L702E) adhesions
Procedure: Transfected NIH3T3 cells were incubated in prewarmed DMEM medium at 37°C for 1 h to equilibrate prior to imaging. FRAP experiments were performed using a spinning disk confocal microscope as described above. Slidebook software (version 6.0.3, 3I) was used to set up the experiment. Regions of interest (ROIs) were manually adjusted to the shape of adhesion. A 488-nm laser was used at 100% power to bleach one to three adhesion ROIs per cell. Three prebleach images were acquired, followed by one image every 10 s for 3 min after bleach. Time-lapse images were analyzed using FIJI/ImageJ software ([Schindelin et al., 2012]) to obtain the intensity values of three control unbleached control ROIs and bleached ROIs over time. Values were background-subtracted, and measurements were corrected with the control values of the unbleached ROIs to compensate for any overall fluorescence loss. Intensity values were then normalized to the first postbleach value; normalized data were fitted to a one-phase association model Y=Y0+(Plateau-Y0)*(1-exp(-K*x)) using GraphPad Prism 10 software. Coefficients of the curve fit were extracted and transformed to generate the mobile fraction and halftime of recovery.

NIH3T3 cells [2] = experiment: client protein recruitment to tensin3 condensates; format: cell-based, mouse; settings: TNS3-L702E condensates
From the text: Since the observed tensin3 condensates were derived from adhesion sites in a talin-regulated mechanosensitive manner, we wondered whether these condensates contain other adhesion components or signaling molecules. To address this question, we examined a selection of cell–matrix adhesion proteins that have been reported by others to be present in LLPS condensates. These proteins include LIMD1 ([Wang et al., 2021]), kindlin2 ([Hsu et al., 2023]), talin ([Hsu et al., 2023]; [Litschel et al., 2024]), KANK ([Guo et al., 2023]), tensin1 ([Lee et al., 2023]), vinculin ([Litschel et al., 2024]), and GIT1 ([Zhu et al., 2020]). We added the actin regulatory RhoGAP DLC1 to this selection, as it is known to bind tensin ([Liao et al., 2006]; [Shih et al., 2015]), and the RNA regulatory protein GIGYF1, which we had previously identified alongside many of the aforementioned proteins in tensin BioID datasets ([Atherton et al., 2022]). We also added stress granule components G3BP1 ([Tourrière et al., […]]) and TDP-43 ([Colombrita et al., 2009]). These proteins were either co-expressed as fluorescently tagged proteins (Fig. S4 I) or, where antibodies were available, probed endogenously in cells that formed GFP-TNS3 condensates (Fig. 8 A).
Cells were fixed in 4% paraformaldehyde (PFA, Sigma-Aldrich), which had been prewarmed to 37°C for 15 min before being washed three times with PBS. For immunofluorescence staining, cells were permeabilized with 0.5% Triton X-100 (Sigma-Aldrich) at room temperature for 5 min before being washed three times with PBS. Blebbistatin (Tocris Bioscience) was diluted in dimethyl sulfoxide (Sigma-Aldrich) and used at a final concentration of 50 μM. The following primary antibodies were diluted in 1% bovine serum albumin (BSA, Sigma-Aldrich): mouse anti-α5 integrin (SNAKA51, 1:100, NBP2-50146; Novus Biologicals), rat anti-β1 integrin (9EG7, 1:200; 553715; BD Biosciences), mouse anti-FN (IST-9, 1:100, ab6328; Abcam), rabbit anti-tensin3 (1:200, HPA055338; Atlas), mouse anti-EEA1 (1:500, 68065-1-IG; Proteintech), mouse anti-LAMP1 (1:200, ab320851; Abcam), mouse anti-paxillin (349, 1:400, mab3060; Sigma-Aldrich), rabbit anti-talin1 (1:200, 82856-4-RR; Proteintech), mouse anti-vinculin (hVin1, 1:500, V9264; Sigma-Aldrich), rabbit anti-KANK2 (1:100, HPA015643; Sigma-Aldrich), rabbit anti-kindlin2 (1:100, 11453-1-AP; Proteintech), rabbit anti-GIT1 (1:200, 26247-1-AP; Proteintech), mouse anti-phosphotyrosine (4G10, 1:200, 05-321X; Sigma-Aldrich), rabbit anti-G3BP1 (1:600, 13057-2-AP; Proteintech), rabbit anti-TDP43 (1:400, 10782-2-AP; Proteintech), and rabbit anti-GIGYF1 (1:400, ab121784; Abcam). […]

U2OS TNS3KO cells = experiment: α5 integrin-positive FBs, rescue of TNS3KO cells; format: cell-based, human; settings: vs mCh-TNS3-WT; FN-coated, overnight; SNAKA51 antibody; n = 37 (WT) and 47 (L702E) cells
Procedure: (§1) Cells were fixed in 4% paraformaldehyde (PFA, Sigma-Aldrich), which had been prewarmed to 37°C for 15 min before being washed three times with PBS. For immunofluorescence staining, cells were permeabilized with 0.5% Triton X-100 (Sigma-Aldrich) at room temperature for 5 min before being washed three times with PBS. Blebbistatin (Tocris Bioscience) was diluted in dimethyl sulfoxide (Sigma-Aldrich) and used at a final concentration of 50 μM. […]
(§2) Analysis of cell adhesion sites, FN fibrils, and LLPS condensates was performed using FIJI/ImageJ (version 1.54f) software ([Schindelin et al., 2012]). […] Prior to adhesion quantification, the images were background-subtracted using a rolling ball algorithm, followed by thresholding of adhesion sites and Analyse Particles functions in FIJI/ImageJ to quantify adhesions. Adhesion sites with sizes between 0.4 and 10 μm^2 were counted, except for adhesions in blebbistatin-treated cells, which were counted with sizes between 0.2 and 4 μm^2. […]

NIH3T3 cells [3] = experiment: adhesion stability under blebbistatin, NIH3T3 cells; format: cell-based, mouse; settings: blebbistatin 50 µM, 60 min; n = 64 (WT), 49 (L702E), 62 (ΔPTB), 71 (Cterm) cells
Procedure: as §1, §2

B1: TNS3-L702E: tensin3 carrying the L702E point mutation that blocks the interaction with talin (protein, UniProt Q68CZ2 1-1445, looked up, variant L702E)
Tensin-3: MEEGHGLDLTYITERIIAVSFPAGCSEESYLHNLQEVTRMLKSKHGDNYLVLNLSEKRYDLTKLNPKIMDVGWPELHAPPLDKMCTICKAQESWLNSNLQHVVVIHCRGGKGRIGVVISSYMHFTNVSASADQALDRFAMKKFYDDKVSALMQPSQKRYVQFLSGLLSGSVKMNASPLFLHFVILHGTPNFDTGGVCRPFLKLYQAMQPVYTSGIYNVGPENPSRICIVIEPAQLLKGDVMVKCYHKKYRSATRDVIFRLQFHTGAVQGYGLVFGKEDLDNASKDDRFPDYGKVELVFSATPEKIQGSEHLYNDHGVIVDYNTTDPLIRWDSYENLSADGEVLHTQGPVDGSLYAKVRKKSSSDPGIPGGPQAIPATNSPDHSDHTLSVSSDSGHSTASARTDKTEERLAPGTRRGLSAQEKAELDQLLSGFGLEDPGSSLKEMTDARSKYSGTRHVVPAQVHVNGDAALKDRETDILDDEMPHHDLHSVDSLGTLSSSEGPQSAHLGPFTCHKSSQNSLLSDGFGSNVGEDPQGTLVPDLGLGMDGPYERERTFGSREPKQPQPLLRKPSVSAQMQAYGQSSYSTQTWVRQQQMVVAHQYSFAPDGEARLVSRCPADNPGLVQAQPRVPLTPTRGTSSRVAVQRGVGSGPHPPDTQQPSPSKAFKPRFPGDQVVNGAGPELSTGPSPGSPTLDIDQSIEQENRLILELDPTFEPIPTHMNALGSQANGSVSPDSVGGGLRASSRLPDTGEGPSRATGRQGSSAEQPLGGRLRKLSLGQYDNDAGGQLPFSKCAWGKAGVDYAPNLPPFPSPADVKETMTPGYPQDLDIIDGRILSSKESMCSTPAFPVSPETPYVKTALRHPPFSPPEPPLSSPASQHKGGREPRSCPETLTHAVGMSESPIGPKSTMLRADASSTPSFQQAFASSCTISSNGPGQRRESSSSAERQWVESSPKPMVSLLGSGRPTGSPLSAEFSGTRKDSPVLSCFPPSELQAPFHSHELSLAEPPDSLAPPSSQAFLGFGTAPVGSGLPPEEDLGALLANSHGASPTPSIPLTATGAADNGFLSHNFLTVAPGHSSHHSPGLQGQGVTLPGQPPLPEKKRASEGDRSLGSVSPSSSGFSSPHSGSTISIPFPNVLPDFSKASEAASPLPDSPGDKLVIVKFVQDTSKFWYKADISREQAIAMLKDKEPGSFIVRDSHSFRGAYGLAMKVATPPPSVLQLNKKAGDLANELVRHFLIECTPKGVRLKGCSNEPYFGSLTALVCQHSITPLALPCKLLIPERDPLEEIAESSPQTAANSAAELLKQGAACNVWYLNSVEMESLTGHQAIQKALSITLVQEPPPVSTVVHFKVSAQGITLTDNQRKLFFRRHYPVNSVIFCALDPQDRKWIKDGPSSKVFGFVARKQGSATDNVCHLFAEHDPEQPASAIVNFVSKVMIGSPKKV
modifications: mCherry or GFP tag
- halftime of recovery (FRAP) (NIH3T3 cells [1]): significantly higher
- mobile fraction (FRAP) (NIH3T3 cells [1]): significantly higher
- localization of talin1/2, KANK1/2 and vinculin into condensates (NIH3T3 cells [2]): failed to localize into the tensin3 condensates
- presence of tensin1, LIMD1, DLC1, and GIGYF1 in condensates (NIH3T3 cells [2]): remained present
- reduction in centrally located α5 integrin-positive FBs (U2OS TNS3KO cells): 55%
- construct-positive adhesions after blebbistatin (NIH3T3 cells [3]): mostly disappear
